Experimental findings from article PMC3251565 are described below.

This experiment has as its target platelet integrin αIIbβ3 (human (endogenous in platelets)) (UniProt P08514).

Turning to “Rhodostomin (from UniProt P30403) (natural protein)”, the IC50 (KI in the text) of inhibition of ADP-induced platelet aggregation in human PRP came to 83.2 nM.
